The values below come from patent US6482607.

The target of the data set is SP-Dis-PyCter (Dis-PyCter carrying an amino terminal ER-translocation signal from D. discoideum PsA) (UniProt P02886).
Sequence of SP-Dis-PyCter (Dis-PyCter carrying an amino terminal ER-translocation signal from D. discoideum PsA) (P02886 other isoform, or with tags, fused parts or gaps): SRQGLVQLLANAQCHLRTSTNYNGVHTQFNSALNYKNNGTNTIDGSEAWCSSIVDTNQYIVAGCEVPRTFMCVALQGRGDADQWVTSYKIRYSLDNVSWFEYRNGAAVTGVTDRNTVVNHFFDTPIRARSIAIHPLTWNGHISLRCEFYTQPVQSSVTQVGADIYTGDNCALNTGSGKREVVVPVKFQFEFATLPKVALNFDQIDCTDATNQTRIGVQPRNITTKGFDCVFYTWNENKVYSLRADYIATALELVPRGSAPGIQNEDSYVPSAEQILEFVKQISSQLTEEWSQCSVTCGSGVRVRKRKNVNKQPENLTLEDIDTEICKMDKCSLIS

In the case of human thrombin, the “size of the recombinant protein on Western blot after incubation with increasing thrombin (units/ml)” value is recorded as “the size of the recombinant protein decreased with increasing thrombin concentrations”.
